Measured values published in the supplement of paper PMC7125110.
± gives the standard error. Fewer inactive variants are shown than the library holds.

B1: glmS ribozyme (parent)
chain: AUAAAAGCGCCAGAACUACAGAAAUGUAGUUGACGAGGAGGAGGUUUAUCGAAUUUUCGGCGGAUGCCUCCAAA

Key:
Settings in all cases: with glucosamine-6-phosphate
[1] = variants of: B1; test: self-cleavage kobs at 40 uM GlcN6P; higher = faster cleavage; RNA array
Procedure, shortened: (§1)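 Glucosamine-6-phosphate (40 μM to 10 mM) in HEPES/KCl/Mg(OAc)2 buffer was flowed over sequenced MiSeq chips, and tiles were imaged over ~14 h. Barcoded ribozyme variants there had been transcribed in situ by E. coli RNA polymerase and were tracked through a hybridised Cy3 probe at 37 °C. One- or two-exponential decay fits to per-tile medians, normalised to baseline and to non-cleaving reference variants, gave kobs. kcat and KM came from weighted Michaelis–Menten fits across concentrations.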

[2] = variants of: B1; test: self-cleavage kobs at 10000 uM GlcN6P; higher = faster cleavage; RNA array
Procedure, shortened: as §1

[3] = variants of: B1; test: self-cleavage kobs at 160 uM GlcN6P; higher = faster cleavage; RNA array
Procedure, shortened: as §1

[4] = variants of: B1; test: self-cleavage kobs at 640 uM GlcN6P; higher = faster cleavage; RNA array
Procedure, shortened: as §1

[5] = variants of: B1; test: self-cleavage kobs at 2500 uM GlcN6P; higher = faster cleavage; RNA array
Procedure, shortened: as §1

| Variant | self-cleavage kobs at 40 uM GlcN6P [1] [s⁻¹] | self-cleavage kobs at 10000 uM GlcN6P [2] [s⁻¹] | self-cleavage kobs at 160 uM GlcN6P [3] [s⁻¹] | self-cleavage kobs at 640 uM GlcN6P [4] [s⁻¹] | self-cleavage kobs at 2500 uM GlcN6P [5] [s⁻¹] |
| --- | --- | --- | --- | --- | --- |
| A6G G13U G38U G40U | < 1e-05 | < 1e-05 |  |  |  |
| U30C U49A | < 1e-05 |  | < 1e-05 | < 1e-05 |  |
| A14U G29U G35A | < 1e-05 |  |  |  |  |
| U31G G35C G44U U54A | < 1e-05 | < 1e-05 |  |  | < 1e-05 |
| C16A U57G | < 1e-05 |  |  |  |  |
| A12U G63A | < 1e-05 | < 1e-05 | < 1e-05 | < 1e-05 | < 1e-05 |
| C11G U57A | < 1e-05 |  | < 1e-05 | < 1e-05 |  |
| C8U A14U G44U | < 1e-05 |  |  |  |  |
| G35C U45G | < 1e-05 | < 1e-05 | < 1e-05 |  | < 1e-05 |
| A12U U56A | 0.00122 ± 0.00016 | 0.0626 ± 0.016 | 0.0024 ± 0.00059 | 0.0157 ± 0.0027 | 0.04 ± 0.012 |
| G38A U46G A52U | < 1e-05 |  |  |  |  |
| G32U G59A | < 1e-05 |  | < 1e-05 | < 1e-05 |  |
| A36U G44U | < 1e-05 | < 1e-05 | < 1e-05 | < 1e-05 | < 1e-05 |
| G29A U55G G60C | < 1e-05 |  |  |  |  |
| G38A U56C | < 1e-05 | < 1e-05 | < 1e-05 | < 1e-05 |  |
| C10U A14G U55C A64G G66U | < 1e-05 |  |  |  |  |
| G44A U45C A48U | < 1e-05 |  |  |  |  |
| G7U G43A | < 1e-05 | < 1e-05 | < 1e-05 | < 1e-05 | < 1e-05 |
| G35U G44C U56C | < 1e-05 |  |  |  |  |
| G35A G51C | < 1e-05 |  |  | < 1e-05 | < 1e-05 |
| U55G C67U | 0.000342 ± 3.5e-05 | 0.0121 ± 0.0017 | 0.000573 ± 9.2e-05 | 0.000864 ± 0.00017 | 0.00136 ± 0.00026 |
| U45A U47G U57A | < 1e-05 | 0.000108 ± 2.3e-05 |  |  |  |
| C61A G62C | < 1e-05 | < 1e-05 | < 1e-05 | < 1e-05 |  |

| Variant | self-cleavage kobs at 40 uM GlcN6P [1] [s⁻¹] | self-cleavage kobs at 10000 uM GlcN6P [2] [s⁻¹] | self-cleavage kobs at 160 uM GlcN6P [3] [s⁻¹] | self-cleavage kobs at 640 uM GlcN6P [4] [s⁻¹] | self-cleavage kobs at 2500 uM GlcN6P [5] [s⁻¹] |
| --- | --- | --- | --- | --- | --- |
| U31A G62U | < 1e-05 | < 1e-05 | < 1e-05 | < 1e-05 |  |
| C8U G35U | < 1e-05 | < 1e-05 | < 1e-05 | < 1e-05 | < 1e-05 |
| G13C U45C U46A | < 1e-05 | < 1e-05 | < 1e-05 | < 1e-05 |  |
| A12C C34G G40U A52U C61U | < 1e-05 | < 1e-05 |  |  |  |
| U49C G63A | < 1e-05 | < 1e-05 | < 1e-05 |  |  |
| C11U A42C C67G C71A | < 1e-05 | < 1e-05 |  |  |  |
| G40U G41U U47G G62U G63U | < 1e-05 | < 1e-05 |  |  |  |
| G40U G41C A42G A52G U56G G60U | < 1e-05 |  |  | < 1e-05 | < 1e-05 |
| U49G G51A | < 1e-05 | < 1e-05 | < 1e-05 | < 1e-05 | < 1e-05 |
| G38U G40C G60A | < 1e-05 |  |  |  |  |
| C16G C34G G40C U55A C58U U69A | < 1e-05 | < 1e-05 |  |  |  |
| C10G A15U A36U G38A A53G C68G C70U | 0.000148 ± 4.5e-05 |  |  |  |  |
| C10A C11U A36U C70U C71G | 0.000371 ± 9.5e-05 | 0.000335 ± 6.3e-05 |  | 0.000527 ± 0.00015 |  |
| G13A G62U | < 1e-05 | < 1e-05 | < 1e-05 | < 1e-05 | < 1e-05 |
| A15U C16A G60U | < 1e-05 | < 1e-05 |  |  |  |
| A12U G59C | < 1e-05 | < 1e-05 | < 1e-05 | < 1e-05 | < 1e-05 |
| G44U U49G | < 1e-05 |  | < 1e-05 | < 1e-05 |  |
| U49C U54G | < 1e-05 | < 1e-05 | < 1e-05 | < 1e-05 |  |
| U31C U45C C58A C61G C67G | < 1e-05 | < 1e-05 |  |  |  |
| A42U U69G | 0.000489 ± 5.4e-05 | 0.00738 ± 0.0015 | 0.000822 ± 0.00011 | 0.00192 ± 0.00026 | 0.00369 ± 0.00061 |
| U31C C34U G60U | < 1e-05 | < 1e-05 |  |  |  |
| U54G C67G | 0.000338 ± 4.2e-05 | 0.00398 ± 0.0006 | 0.000142 ± 4.5e-05 | 0.00079 ± 0.00024 | 0.000568 ± 0.00012 |
